Reference: US20080213187A1, “NOVEL CASCADE POLYMER COMPLEXES, PROCESSES FOR THEIR PREPARATION AND PHARMACEUTICAL COMPOSITIONS COMPRISING THEM” (priority 2007, published 2008)

How the values were obtained:
[1] = Plasma kinetics after intravenous administration to rats; assay type: in vivo; conditions: for Plasma levels (as % of the dose): i.v. 50 μmol total Gd/kg, ICP-AES
Method: Plasma Kinetics of the Compounds 2e and 4e After Intravenous Administration to Rats
The title substances from Examples 2e and 4e, and for comparison the title substance from Example 1 of EP 0 836 485, were administered intravenously to rats in a dose of 50 μmol of total gadolinium/kg of body weight. Blood samples were then taken through a catheter in the common carotid artery at various times (1, 3, 5, 10, 15, 30, 60, 90, 120, 240, 360 min, and 24 h p.i.), and the metal content was determined by atomic emission spectroscopy (ICP-AES) and converted into plasma levels using a conversion factor (0.625). The kinetic data were calculated (software: WinNonlin) from the plasma concentrations (Tab. 1, 2).

[2] = rats, cited from earlier work
[3] = rats; cited from earlier work
[4] = intravenous, 50 μmol of total gadolinium/kg, calculated with WinNonlin from plasma concentrations

Compound | Plasma levels (as % of the dose) ([1]; 1 min p.i.) | Plasma levels (as % of the dose) ([1]; 3 min p.i.) | Plasma levels (as % of the dose) ([1]; 5 min p.i.) | Plasma levels (as % of the dose) ([1]; 10 min p.i.) | Plasma levels (as % of the dose) ([1]; 15 min p.i.) | Plasma levels (as % of the dose) ([1]; 30 min p.i.) | Plasma levels (as % of the dose) ([1]; 60 min p.i.) | Plasma levels (as % of the dose) ([1]; 90 min p.i.) | Plasma levels (as % of the dose) ([1]; 120 min p.i.) | Plasma levels (as % of the dose) ([1]; 240 min p.i.) | Plasma levels (as % of the dose) ([1]; 360 min p.i.) | Plasma levels (as % of the dose) ([1]; 1440 min p.i.) | Half-life α phase [1, 4] | Half-life β phase [1, 4] | Volume of distribution Vd ss [1, 4] | accumulation in liver tissue ([2]; 24 hours after intravenous injection) | dose eliminated ([2]; in 24 hours) | excretion behaviour [3]
Octa-Gd complex amide from the Gd complex of 10-(4-carboxy-1-methyl-2-oxo-3-azabutyl)-1,4,7,10-tetraazacyclododecane-1,4,7-triacetic acid with dendritic octaamine 4d [Example 4e] | 65.9% | 44.2% | 30.0% | 17.5% | 13.5% | 8.3% | 4.5% | 2.7% | 1.6% | 0.3% | 0.0% | 0.0% | 3.3 min | 42.0 min | 0.20 L/kg |  |  | 
CC(C(=O)NCC(=O)NCCCC[C@H](NC(=O)CNC(=O)C(C)N1CCN(CC(=O)O)CCN(CC(=O)O)CCN(CC(=O)O)CC1)C(=O)NCCCC[C@H](NC(=O)[C@H](CCCCNC(=O)CNC(=O)C(C)N1CCN(CC(=O)O)CCN(CC(=O)O)CCN(CC(=O)O)CC1)NC(=O)CNC(=O)C(C)N1CCN(CC(=O)O)CCN(CC(=O)O)CCN(CC(=O)O)CC1)C(=O)NCCN(CCNC(=O)[C@H](CCCCNC(=O)[C@H](CCCCNC(=O)CNC(=O)C(C)N1CCN(CC(=O)O)CCN(CC(=O)O)CCN(CC(=O)O)CC1)NC(=O)CNC(=O)C(C)N1CCN(CC(=O)O)CCN(CC(=O)O)CCN(CC(=O)O)CC1)NC(=O)[C@H](CCCCNC(=O)CNC(=O)C(C)N1CCN(CC(=O)O)CCN(CC(=O)O)CCN(CC(=O)O)CC1)NC(=O)CNC(=O)C(C)N1CCN(CC(=O)O)CCN(CC(=O)O)CCN(CC(=O)O)CC1)C(=O)c1cc(C(=O)N(CCNC(=O)[C@H](CCCCNC(=O)[C@H](CCCCNC(=O)CNC(=O)C(C)N2CCN(CC(=O)O)CCN(CC(=O)O)CCN(CC(=O)O)CC2)NC(=O)CNC(=O)C(C)N2CCN(CC(=O)O)CCN(CC(=O)O)CCN(CC(=O)O)CC2)NC(=O)[C@H](CCCCNC(=O)CNC(=O)C(C)N2CCN(CC(=O)O)CCN(CC(=O)O)CCN(CC(=O)O)CC2)NC(=O)CNC(=O)C(C)N2CCN(CC(=O)O)CCN(CC(=O)O)CCN(CC(=O)O)CC2)CCNC(=O)[C@H](CCCCNC(=O)[C@H](CCCCNC(=O)CNC(=O)C(C)N2CCN(CC(=O)O)CCN(CC(=O)O)CCN(CC(=O)O)CC2)NC(=O)CNC(=O)C(C)N2CCN(CC(=O)O)CCN(CC(=O)O)CCN(CC(=O)O)CC2)NC(=O)[C@H](CCCCNC(=O)CNC(=O)C(C)N2CCN(CC(=O)O)CCN(CC(=O)O)CCN(CC(=O)O)CC2)NC(=O)CNC(=O)C(C)N2CCN(CC(=O)O)CCN(CC(=O)O)CCN(CC(=O)O)CC2)cc(C(=O)N(CCNC(=O)[C@H](CCCCNC(=O)[C@H](CCCCNC(=O)CNC(=O)C(C)N2CCN(CC(=O)O)CCN(CC(=O)O)CCN(CC(=O)O)CC2)NC(=O)CNC(=O)C(C)N2CCN(CC(=O)O)CCN(CC(=O)O)CCN(CC(=O)O)CC2)NC(=O)[C@H](CCCCNC(=O)CNC(=O)C(C)N2CCN(CC(=O)O)CCN(CC(=O)O)CCN(CC(=O)O)CC2)NC(=O)CNC(=O)C(C)N2CCN(CC(=O)O)CCN(CC(=O)O)CCN(CC(=O)O)CC2)CCNC(=O)[C@H](CCCCNC(=O)[C@H](CCCCNC(=O)CNC(=O)C(C)N2CCN(CC(=O)O)CCN(CC(=O)O)CCN(CC(=O)O)CC2)NC(=O)CNC(=O)C(C)N2CCN(CC(=O)O)CCN(CC(=O)O)CCN(CC(=O)O)CC2)NC(=O)[C@H](CCCCNC(=O)CNC(=O)C(C)N2CCN(CC(=O)O)CCN(CC(=O)O)CCN(CC(=O)O)CC2)NC(=O)CNC(=O)C(C)N2CCN(CC(=O)O)CCN(CC(=O)O)CCN(CC(=O)O)CC2)c1)N1CCN(CC(=O)O)CCN(CC(=O)O)CCN(CC(=O)O)CC1 (stereo partly drawn) [Example No. 1 from EP 0 836 485] | 75.0% | 39.2% | 25.0% | 6.9% | 4.0% | 1.5% | 1.0% | 0.9% | 0.7% | 0.4% | 0.4% | 0.0% |  |  |  |  |  | 
albumin-GdDTPA |  |  |  |  |  |  |  |  |  |  |  |  |  |  |  | ~30 % of the dose | 20 % of the dose | 
polylysine-GdDTPA |  |  |  |  |  |  |  |  |  |  |  |  |  |  |  |  |  | excreted unchanged by glomerular filtration via the kidney
